The DeepSol protein solubility set

Test: soluble on expression in E. coli; label from the status in PepcDB or PDB records

Row | Sequence | soluble on expression in E. coli
1 | MRAEFVNPFLASLMNVLKTMASLELKPQKPRIKKDEIARGDVSGLIGMIGPTTRGSMSITFDESLALEIMQNMLGERPNGLNEEVTDMVGEITNMVTGGAKRILAESGFDFDMATPVVVSGRGHTIRHKCEGAIILMPFSSPWGNAFIEICFE | not soluble
2 | MRAHTLSRQLREGNLFAEQCPSREVLKHVTSRWGVLILVALRDGTHRFSDLRRKMGGVSEKMLAQSLQALEQDGFLNRVSYPVVPPHVEYSLTPLGEQVSDKVAALADWIELNLPQVLAQRERLSDGG | soluble
3 | MRAIGLLEFKEITRGVYAADVMLKATPVELLLIDNICPGKLIVLIEGEVSAVKNAISRGKEVFSEGVIEEVVLTNPHPSLSTVFPRKKQSKKLNYNSIGIIETLSVSSAIKAADKAAKGANVEIIDIKIARFLGGKAIVVLGGEISAVKVAIDAGISAVQKGKLVSSTVVANINEKLLEMWV | soluble
4 | MRALRLVTSESVTEGHPDKLADRISDAILDALIAQDKKARVAAETLVTTGLVFVAGEITTEGYVDIPNLVRKTVREVGYTRAKYGFDADTCAVLTAIDEQSPDIAGGVNLSYEWRVLKSTDPLDRVGAGDQGLMFGYATDETPELMPLPITLAHRLTMRLAEVRKTGLLPYLRPDGKAQVTVVYEGDKPLYVKTVVVSAQHSPEVEQEQLREDLIREVVRQAIPPEYLKDGETEYLINPSGRFILGGPHADTGLTGRKIIVDTYGGAVPHGGGAFSGKDPTKVDRSASYYARYMAKNIVAAGLARRALVELAYAIGKARPVSLRVETFGTGVLPDEKLTEIAKKVFDPRPLAIIEELDLLRPIYTPTSAYGHFGRPGFPWEETDRVEALRREAGL | soluble
5 | MRAPEESLREVLARFPQVQAAFLFGSRAEGRARADSDWDLALLLSPEEPDPTLEVLGALVEAGLERVDLVLLHRAPPLLAFLAVKGKPVFLREGFDLGSYVSRVAREWWDTEPLLRVQREALTLKRRWLDPS | soluble
6 | MRASEVLQKCLPNSLSGMHALRERALLHAVEALLHGRRLTLMDIARSWPSALRVRAPLKAVDRLLSNRNLQVERSVIDHEMAHWLLRGAQPVIVIDWSDLKPDKSWCLLRAAVPVGGRTLTLLDMVVPGKQQGLEHHHHHH | soluble
7 | MRATVSGKTTTILPLLSKLIVIVIKSTSIHCSTLTSSGLFDSTAPRVFKNLVNYGGDMWFYMKPYPSNGKSGSQQMENVYQGLKSAQIKFSHITQHGISVQFFTSQSNWHSITNNNRSFSSYKLWWAHTNGAGNGGATSPNFEGFVSFGGWTSSSLVGKEYARQVQECGVTVNKYVYVK | not soluble
8 | MRAVVVGAGLGGLLAGAFLARNGHEIIVLEKSAMIGGRFTNLPYKGFQLSTGALHMIPHGEDGPLAHLLRILGAKVEIVNSNPKGKILWEGKIFHYRESWKFLSVKEKAKALKLLAEIRMNKLPKEEIPADEWIKEKIGENEFLLSVLESFAGWADSVSLSDLTALELAKEIRAALRWGGPGLIRGGCKAVIDELERIIMENKGKILTRKEVVEINIEEKKVYTRDNEEYSFDVAISNVGVRETVKLIGRDYFDRDYLKQVDSIEPSEGIKFNLAVPGEPRIGNTIVFTPGLMINGFNEPSALDKSLAREGYTLIMAHMALKNGNVKKAIEKGWEELLEIFPEGEPLLAQVYRDGNPVNRTRAGLHIEWPLNEVLVVGDGYRPPGGIEVDGIALGVMKALEKLNLGSFSEWYLLEHHHHHH | soluble
9 | MRCLALDIGGTKIAAAIVKNGEIEQRQQIHTPRENVVEGMHQALGKLLADYEGQFDYVAVASTGIINNGILSALNPKNLGGLAEFPLKASIAKHTDKPIGLLNDAQAATYAEYQLQNSEQVSNFVFITVSTGVGGGIVLNQILQTGSRGIAGHIGHTLADPNGAICGCGRRGCVEAIASGRAIEAVSSQWEEPCDPKEVFERFRKNDEKATALVERSAKAIANLIADLVISLDIQKIAIGGSVGLAEGYLSLVEKYLQDFPSIYCCEIETAKFGQDAGLIGAAYWVKDVLLDKPEGTIYGLEHHHHHH | soluble
10 | MRDEDFCCAVCLDFFVEPCIIECGHSYCRFCIESHLNINEKCPLCRAHTGNPIRNRQLESLTMSYVSSRNISTEYYERMKSYQKKLLLQNRALVIIWTELNKRPGHSTELCNLVRNVQDEELKSEIMWQVKQQVGVGLEHTGDLQEENVTIRLKNSSSQQ | not soluble
11 | MRDPNKWAEVKKTLPLVGAGRSGGRFRHPSARGKLTVQYVNRVRHYYDLLVRLSEKKRSGPSGRGLEHHHHHH | not soluble
12 | MREIVTIQVGEFANFVGSHFWNFQDELLGLASDPESDPIFRNHNLDMDVLYRSGETQQGVATYTPRLVSVNLKGALGTMSSRGTLYNEGSSSRSDSSATWFGDVDTQRSEPRKRNLFLQSLYEEEHVVGKEKAKEIEDKDIVGCLDEEVECWTDFSKSHYHPQSLYELNGLWMDSQAFNNYGIGKDVFSEASRGEEICDRLRFFVEECDHIQGIKFLVDDSGGFSAVAADFLENMADEYTNVPVLLYSVRTPMSQMSSKKTVSNKLHDAISFSRLSSFCKLFTPIGLPSLTGSKASKFLNLGDEKPYRSSAVYAAALHSSTIPFRMQPTSSDSSEVSNSMDVNTLVQLLTGRGRQNIVAILDSAMPAPTLAGKQLENTLLTSLQALTPEVTEDVEDNQAVESMCILGALRSEDKEALVSEVKNAVDASYEQATTKGKPLFCNLSVSRCPLPVPLPFPSIFGNLVGRKGEILSSPVSDSLYRGSLDVHSIPVATRWRSSSAILPFLETRMGNLEKLGIQWGAMGSDVVRAWGFGREELQEMRENLSKMVSELNPQFFESSDSD | soluble
13 | MREVISIHIGQAGVQIGNACWELYCLEHGIQPDGQMPSDKSLGGSDDSFSTFFSETGSGRHVPRAVMVDLEPTVIDEIRTGTYRSLFHPEQLITGKEDAANNYARGHYTIGKEIIDLTLDRIRRLADNCTGLQGFLVFHSFGGGTGSGFTSLLMERLSVDYGKKAKLEFSIYPAPQVSTAVVEPYNSILTTHTTLEHSDCSFMVDNEAIYDICRRNLDIERPSYTNLNRLIGQIVSSITASLRFDGALNVDLTEFQTNLVPYPRIHFPLATFSPVISAEKAYHEQLSVAEITNMCFEPHNQMVKCDPRHGKYMAVCLLFRGDVVPKDVNAAIATIKTKRSIQFVDWCPTGFKVGINYQPPTVVPGGDLAKVPRAVCMLSNTTAIAEAWARLDHKFDLMYAKRAFVHWYVGEGMEEGEFSEAREDLAALEKDYEEVGVDSMEDNGEEGDEY | not soluble
14 | MRFEYDLLIVAASPLALDIAYRCAPLGRIGLVIPPPDGQWQWQWQRWWLSQFPPRTLDAQHWQHFQAHLSHGQRRYAPAVLELVGVDVITGVGEFVWRPRCHFQVGGDRLYARGYLLLDAPAAMDFQDMDALSRIELACWHYWSGKAPNADAQGLPVVTTEDAWFNDRLHAALKALGLAIPGSGKRKAPDFSPLHLHPLQRDAQGWLRLNRYGRTSHPQIYACGGWQRGYHLPSLTYFEAFAIARQILQRRPIPLDYRSQPWWIALPIPMARVGWNGRQAQQSLREPIQLWEIQQWSPEGQSLGQVVINRQGRLLGATLIGRAAIASSRIFGRCLDENAFAAITYAGWELDCQRQRSPKARRLPKSGSGLDSPLPLEHHHHHH | soluble
15 | MRFSILGLAFASVLSGCVSTTPTTSALSSTDVTTFYDYQLHSPSGNALALQNLPDELKNADVILVGEWHTHAGIHRFQTDLLRQLSSGERRIALSMEQVTRDKQSVLDAYLKGEIGEQYFMSQSNAWPNYESDYRPLVEFAKQANLPVIAANTPKYIVRCIGRQGVDYLNKLDDEERSFVAENVNTANSPYKEKFMASMHHGKPEQTEKQYAAQVTWDETMAESIVKYLAQNPNAQVVHVAGKFHTEAGLGTAASILQRNPELKVVVVNPTSEISTNSPDYQLEVLEPPVRFVQDANRMAAYKHLSTRNDDLQCKLEHHHHHH | soluble
16 | MRFTKTLFTTALFGASVFSFQSTAWADTLEQQFQQGSEATTRGDYQTTFKFLLPLAEQGNALAQMMLGVMYAKGQGVKQDDVEAVKWYRKAAEQGYADAQAMLGFSYLLGQSGVQVNKSLAKEWFGKACDNGDQNGCEYYGKLNRGEL | not soluble
17 | MRFVPSYLIGFITLYLKGKVMLSIFDIYKIGVGPSSSHTNGPMIAGYRFVQQLLPQLNKVARIQVDLYGSLSLTGKGHHTDRATLLGLMGNQPATIKIGDANQTLREALQTGKLRLNGQHDIAFDYHQDLLFHQDNLPLHENGMTLSAFDTQGQQIDFETYYSVGGGFVATAEQLQNGT | not soluble
18 | MRGGPVNSHDVTDEQWEGLAQVVPLRGRDAWPSAVGHRSIPEAQTEARRRFVVLRVNIFADARDVAETLMRGIPVLLDLTSAETEVAKRVLDFSTGVVFGLASGMHRVDRNVFLLTPPGTEVQGLMEGVGVPGILEHHHHHH | not soluble
19 | MRGGSSLDSFPGKGTLHTLEIENFKSYKGKHTIGPFTRFTAIIGPNGSGKSNLMDAISFVLGEKPSSLRVRKYADLIHGAPINKPVAKKCRVTMNYKYSDGKVKAFTRGVNNGTSEHLLDGQTVTSAAYSQEMESINIFIKARNFLVYQGAIENIAMKTPKERTQLFEELSRSHEFQAEYERLKVEMTKAEDDTQHNMNKRRGIAQEKREAKMEKDEAEKYQTMKNELAAKSTMLFLHQLFHCERTIDESKEEINAQKKTIASLEATRSKEEAKIAAVHQEHRKALREVQKMTRKLDQKETDLAEKQQNMLTLKVSVAHEHKKLEIAKKMLAAAESKAENNSTQLADLKKSKKELEKKKAAYEAEIQDMMQRGELNLSDEQVREYGQLKDQAQRESAMVQRELLMAEQVFEGDKSSLNHELRRQKEHQERVKAKEGDVRRIETQIATLAQRIKETEEETKILKADLKKIENDVVIDKSAAAEYNKELVAVVRQLSEASGDSAEGERNQRRTEALEGLKKNFPESVYGRLVDLCQPSHKRFNIATTKILQKHMNSIVCDTEETAAKAIVYLKDHRYPPETFLPNDALVVNPLNEKLREIKKPAGVKLVFDVINPQHQAARKALQFVCGNALVCESQEDAKQLAYGGGELKDRFKAVSMDGTLFQQSGVMSGGSADLRQKSKKWDEKVVKQLREKRNQLNEKIADLQKHRRRELEVESVRSKINGNEQRLAMMKRDLKNMREMQLERLQNELEGMTAEMNMLPPRISNCQEKLERSESTLKSLQTKSNEVADRIFADFCTRVGIASIRDYENREMRIKQEMEDKLRSFDDDIQKLAYEIDFVTEQDGNRKVEVEKEKVSQIDRQYKDMKKKEKTAAAALKEHTESMEQDKEVLEEKKALSHKLETEWNEVKKIAQVAMKDFTKAEKELLRLESLLTKKQYERHSLLHSVKLGQIALPLKSGSMADVEYEEDDGDIYFIIFVSLFPFKFQLISDDTASQSSQSATDGPSVSEEQIQREQHIKINYDSLPREYKDVDDDDGVRQMSNRLNVEIDELQKNVSKMNAPNLKANQRMAEVKEREAESTEELENARKKAKRIRQQFEKVKTDRYRRFQDFFDPVANTIDDIYKQLSRNTSAQAFLGADNMEEPYLDGIQYNCVAPGKRFRPMDNLSGGEKTIAALALLFAVHGRNPAPFFVLDEIDAALDNTNIGKVASYICESAREHMQIIVISLKEEFYNKADSLIGIFPYPAACTTSGVLTFDLTRFKQIGLNEMTENPPTPSIAT | not soluble
20 | MRGSHHHHHHGMASMTGGQQMGRDLYDDDDKDHPFTMADQAPFDTDVNTLTRFVMEEGRKARGTGELTQLLNSLCTAVKAISSAVRKAGIAHLYGIAGSTNVTGDQVKKLDVLSNDLVMNMLKSSFATCVLVSEEDKHAIIVEPEKRGKYVVCFDPLDGSSNIDCLVSVGTIFGIYRKKSTDEPSEKDALQPGRNLVAAGYALYGSATMLVLAMDCGVNCFMLDPAIGEFILVDKDVKIKKKGKIYSLNEGYAKDFDPAVTEYIQRKKFPPDNSAPYGARYVGSMVADVHRTLVYGGIFLYPANKKSPNGKLRLLYECNPMAYVMEKAGGMATTGKEAVLDVIPTDIHQRAPVILGSPDDVLEFLKVYEKHSAQ | soluble
